Key:
[1] = target: human GLT25D1/ColGalT1 (procollagen galactosyltransferase 1), amino acids 30-622, wild type (human) (UniProt Q8NBJ5); test: cryo-EM structure
[2] = target: the molecule itself; test: cryo-EM structure

Molecule: human GLT25D1/ColGalT1 (procollagen galactosyltransferase 1), amino acids 30-622, wild type (from UniProt Q8NBJ5 30-622) (enzyme)
- stoichiometry N [1]: 2

B1: human LH3/PLOD3 (multifunctional procollagen lysine hydroxylase and glycosyltransferase LH3), wild type (enzyme)
chain: SDRPRGRDPVNPEKLLVITVATAETEGYLRFLRSAEFFNYTVRTLGLGEEWRGGDVARTVGGGQKVRWLKKEMEKYADREDMIIMFVDSYDVILAGSPTELLKKFVQSGSRLLFSAESFCWPEWGLAEQYPEVGTGKRFLNSGGFIGFATTIHQIVRQWKYKDDDDDQLFYTRLYLDPGLREKLSLNLDHKSRIFQNLNGALDEVVLKFDRNRVRIRNVAYDTLPIVVHGNGPTKLQLNYLGNYVPNGWTPEGGCGFCNQDRRTLPGGQPPPRVFLAVFVEQPTPFLPRFLQRLLLLDYPPDRVTLFLHNNEVFHEPHIADSWPQLQDHFSAVKLVGPEEALSPGEARDMAMDLCRQDPECEFYFSLDADAVLTNLQTLRILIEENRKVIAPMLSRHGKLWSNFWGALSPDEYYARSEDYVELVQRKRVGVWNVPYISQAYVIRGDTLRMELPQRDVFSGSDTDPDMAFCKSFRDKGIFLHLSNQHEFGRLLATSRYDTEHLHPDLWQIFDNPVDWKEQYIHENYSRALEGEGIVEQPCPDVYWFPLLSEQMCDELVAEMEHYGQWSGGRHEDSRLAGGYENVPTVDIHMKQVGYEDQWLQLLRTYVGPMTESLFPGYHTKARAVMNFVVRYRPDEQPSLRPHHDSSTFTLNVALNHKGLDYEGGGCRFLRYDCVISSPRKGWALLHPGRLTHYHEGLPTTWGTRYIMVSFVDP
modifications: N-linked glycans at N63 and N548 (seen in the cryo-EM map)
- stoichiometry N [2]: 2

— publication PMC11897130 (Nature Communications, 2025)
